Each block holds one molecule with its values, some of them ahead of it.
Columns and labels:
[1] = target: α-galactosidase from Thermus thermophilus HB27 (TtGalA), N-terminally His-tagged, expressed in T. thermophilus HB27::nar (Thermus thermophilus HB27); assay: SEC-MALS; size-exclusion chromatography (S200 16/60) with Mini DAWN Treos triple-angle light scattering and QELS; 500 µg of protein (1 mg/ml) loaded; 0.5 ml/min; buffer A (50 mM Tris-HCl pH 7.5, 500 mM NaCl)
[2] = substrate: O=[N+]([O-])c1ccc(O[C@H]2O[C@H](CO)[C@H](O)[C@H](O)[C@H]2O)cc1; assay: purified protein; settings: 90 °C, pH 6.0, 50 mM sodium phosphate

stoichiometry N [1]: 6
Molecule: α-galactosidase from Thermus thermophilus HB27 (TtGalA), N-terminally His-tagged, expressed in T. thermophilus HB27::nar (enzyme)

B1: TtGalA (Thermus thermophilus HB27) (protein)
chain: MRLNLGGAEVFLRAEGLEEAPGGVRLWGREVRVFPPFPAKGFFRHGWQSWSLAAWVDPAQAPTPLLPEARRPQADDPFLLEAGAWWGSGVGALRGPDGRALLLGALDLGARVLGREDLLLGRYAGEGGAWFLAHGPEEEVFAAYAQLLPRRLSGRPPRVWCSWYSFYTRIGEDLLLRVLDEVAAFSFEVFQIDDGWQRALGDWEPNDRFPRGMAFLAERIRERGLRPGLWFAPFLVTADSPLFQMRPDWVLRDGEGRPVRAGFNWGRPLYALDAGNEEVVEWAADLVRKALAWGYDYLKLDFLYAAALPGAEGEARYRRAMARLREAAGEAYLLFCGAPVLASLGLADGLRVGPDVAPYWDNEERSFWLADPTGPGLRNALRSTLHRLWLMENVHVDPDVVYFRTRFNLLSPEEMRLQEALAHFTGFKATSDPPSWLLPEEKGRLEAFLAREVPVRRLGPYRFRVGEEEVDYAPLL
Km [2]: 690 ± 17 µM | Vmax [2]: 338 µmol/min/mg | kcat [2]: 710 s⁻¹

Source: paper PMC5307791, “Thermus thermophilus as source of thermozymes for biotechnological applications: homologous expression and biochemical characterization of an α-galactosidase” (Microbial Cell Factories, 2017)
